Data: patent US5994296A, “Human mutant tissue factor compositions useful as tissue factor antagonists” (priority 1998, dated 1999)
Positions count from the first letter of the chain named.

B1: Ile-22 to Ala: human tissue factor mutant with alanine substituted for Ile-22 (protein, UniProt P13726 33-295, looked up, variant I22A)
Tissue factor: SGTTNTVAAYNLTWKSTNFKTALEWEPKPVNQVYTVQISTKSGDWKSKCFYTTDTECDLTDEIVKDVKQTYLARVFSYPAGNVESTGSAGEPLYENSPEFTPYLETNLGQPTIQSFEQVGTKVNVTVEDERTLVRRNNTFLSLRDVFGKDLIYTLYYWKSSSSGKKTAKTNTNEFLIDVDKGENYCFSVQAVIPSRTVNRKSTDSPVECMGQEKGEFREIFYIIGAVVFVVIILVIILAISLHKCRKAGVGQSWKENSPLNVS
B2: Asp-58 to Ala: human tissue factor mutant with alanine substituted for Asp-58 (protein, UniProt P13726 33-295, looked up, variant D58A)
Tissue factor: B1 Tissue factor with A22I, D58A
B3: Phe-140: human tissue factor alanine mutant at Phe-140 (protein, UniProt P13726 33-295, looked up, variant F140A)
Tissue factor: B1 Tissue factor with A22I, F140A
B4: Arg-135: human tissue factor alanine mutant at Arg-135 (protein, UniProt P13726 33-295, looked up, variant R135A)
Tissue factor: B1 Tissue factor with A22I, R135A
B5: Val-64/Tyr-71 to Ala: human tissue factor double mutant with alanines for Val-64 and Tyr-71 (protein, UniProt P13726 33-295, looked up, variant V64A Y71A)
Tissue factor: B1 Tissue factor with A22I, V64A, Y71A
B6: Arg-196: human tissue factor alanine mutant at Arg-196 (protein, UniProt P13726 33-295, looked up, variant R196A)
Tissue factor: B1 Tissue factor with A22I, R196A
B7: R44: mhuTF with arginine substituted in place of D44 (protein, UniProt P13726 33-251, looked up, variant D44R)
extracellular domain: SGTTNTVAAYNLTWKSTNFKTILEWEPKPVNQVYTVQISTKSGRWKSKCFYTTDTECDLTDEIVKDVKQTYLARVFSYPAGNVESTGSAGEPLYENSPEFTPYLETNLGQPTIQSFEQVGTKVNVTVEDERTLVRRNNTFLSLRDVFGKDLIYTLYYWKSSSSGKKTAKTNTNEFLIDVDKGENYCFSVQAVIPSRTVNRKSTDSPVECMGQEKGEFRE
modifications: extracellular domain
notes: mhuTF with arginine substituted in place of D44
B8: Thr-106: human tissue factor mutant with Ala replacement for Thr-106 (protein, UniProt P13726 33-295, looked up, variant T106A)
Tissue factor: B1 Tissue factor with A22I, T106A
B9: Thr-139/Ser-142: human tissue factor alanine double mutant at Thr-139 and Ser-142 (protein, UniProt P13726 33-295, looked up, variant T139A S142A)
Tissue factor: B1 Tissue factor with A22I, T139A, S142A
B10: Glu-105: human tissue factor mutant with Ala replacement for Glu-105 (protein, UniProt P13726 33-295, looked up, variant E105A)
Tissue factor: B1 Tissue factor with A22I, E105A
B11: Arg-136: human tissue factor alanine mutant at Arg-136 (protein, UniProt P13726 33-295, looked up, variant R136A)
Tissue factor: B1 Tissue factor with A22I, R136A
B12: Arg-131: human tissue factor alanine mutant at Arg-131 (protein, UniProt P13726 33-295, looked up, variant R131A)
Tissue factor: B1 Tissue factor with A22I, R131A

Test system: VIIa
Test: linked chromogenic assay with purified VIIa and factor X (apparent dissociation constant of TF-VIIa)
Assay type: binding
Conditions: 5 mM Ca2+, Factor X 100 nM
Description: (§1) The lysate was prepared by treating cell pellets with 15 mM octyl-glucopyranoside for 15 minutes at 37C. followed by a 3-fold dilution. […] Formed TF-VIIa complexes were quantified with substrate factor X added at 100 nM for a fixed time. Samples were then removed from the reaction and quenched in 100 mM EDTA in TBS (20 mM Tris-HCl, 140 mM NaCl, pH 7.4). The formation of Xa in the quenched reaction was determined with the chromogenic peptidyl substrate, Spectrozyme FXa (1.2 mM). The rate of Spectrozyme hydrolysis, measured as the increase in absorbance (mOD/min), was determined at ambient temperature in a kinetic plate reader (Molecular Devices, Mountain View, Calif.) followed by quenching and monitoring of product factor Xa formation using the Spectrozyme FXa.
Enzfitter (Elsevier Biosoft) programs were employed to calculate the KDapp from the experimentally determined bound VIIa, and free VIIa which was obtained by subtracting bound VIIa from the initial VIIa concentration.

| Molecule | increase in KDapp for the TF-VIIa interaction compared to wild-type TF (ratio KD mutant/KD wild-type) [fold] |
| --- | --- |
| B1 | 11 |
| B2 | 41 |
| B3 | 18 |
| B4 | 7.4 |
| B5 | 2.1 |
| B6 | 3.5 |

Test system: Factor X
Test: ability to functionally cleave Factor X (reaction rate Vmax) of D44 mutants
Assay type: biochemical
Conditions: D44 substitution study
Description: as §1
Additional mhuTF mutants were prepared based on amino acid residue substitutions at amino acid residue position number D44.

| Molecule | loss of function (specific functional activity, Vmax) compared to wild-type [%] |
| --- | --- |
| B7 | 75 |

Same assay, conditions: Factor X cleavage; D44 substitution study

| Molecule | reaction rate (Vmax) [per second] |
| --- | --- |
| B7 | ~0.5 |

Test system: recalcified plasma
Test: one stage clotting (coagulation) assay of full-length TF mutants in CHO cell lysates
Assay type: biochemical
Conditions: coagulant activity normalized to antigen concentration; full-length mutants expressed in CHO cells
Description: The full-length TF mutants prepared above were analyzed for function by coagulation assay. […] Coagulation factor deficient plasmas were purchased from George King Bio-medical. The chromogenic substrate, Spectrozyme FXa, was from American Diagnostica Inc. (Greenwich, Conn.).
An alternative approach was to use a polyvalent antibody purified by affinity for capturing TF followed by detection with the TF8-5G9 monoclonal antibody described above.
Initiation of coagulation by wild-type and mutant TF in recalcified plasma was determined after lysis of cell pellets from 2×10^6 cells/ml for each expressed full-length mutant with 15 mM octyl-glucopyranoside in HBS for 15 minutes at 37C. followed by a 3-fold dilution.
All data represented are based on at least three independent determinations performed in duplicate.

| Molecule | reduction in specific functional activity (loss of function) relative to wild-type TF |
| --- | --- |
| B1 | 35% |
| B8 | more than 50% |
| B9 | 30-50% |
| B10 | more than 50% |
| B3 | 30-50% |
| B11 | 30-50% |
| B4 | 30-50% |
| B12 | 30-50% |
